The results in this text go back to the RNAGym collection of RNA variant scans (doi:10.7554/elife.80360).

The labels stand for the following.
B1: Hammerhead Ribozyme (parent)
chain: ACCGGAUGUGCUUUCCGGUCUGAUGAGUCCGUGAGGACGAAACAG

In the data set the parent is B1. In words: self-cleavage, relative activity (ratio to wild type); higher = more cleavage; co-transcriptional.
ACCGGAUGUGCUUUCCGGUCUGAUGAUUCCGUGAGGACGAAAAAG [G27U C43A]: the self-cleavage amounted to 0.374.

In the case of ACCGGAUGUGCUUUCCGGUCUGAUGAUUCCGUGAGGACGAAAUAG [G27U C43U], the self-cleavage came out at 0.366.

For the variant ACCGGAUGUGCUUUCCGGUCUGAUGAUUCCGUGAGGACGAAAGAG [G27U C43G], the self-cleavage is 0.268. With ACCGGAUGUGCUUUCCGGUCUGAUGACUCCGUGAUGACGAAACAG [G27C G35U], the self-cleavage was 0.402. The same measure for ACCGGAUGUGCUUUCCGGUCUGAUGACUCCGUGAAGACGAAACAG [G27C G35A]: 0.443. The same measure for ACCGGAUGUGCUUUCCGGUCUGAUGACUCCGUGACGACGAAACAG [G27C G35C]: 0.394; for ACCGGAUGUGCUUUCCGGUCUGAUGAUUCCGGGAGGACGAAACAG [G27U U32G]: 0.417.

Turning to ACCGGAUGUGCUUUCCGGUCUGAUGAUUCCGCGAGGACGAAACAG [G27U U32C], the self-cleavage stood at 0.495. As for ACCGGAUGUGCUUUCCGGUCUGAUGAUUCCGAGAGGACGAAACAG [G27U U32A], the figure is 0.547; as for ACCGGAUGUGCUUUCCGGUCUGAUGAGACCGUGGGGACGAAACAG [U28A A34G], 0.516.

ACCGGAUGUGCUUUCCGGUCUGAUGAGACCGUGUGGACGAAACAG [U28A A34U]: the self-cleavage amounted to 0.678.

For the variant ACCGGAUGUGCUUUCCGGUCUGAUGAGACCGUGCGGACGAAACAG [U28A A34C], the self-cleavage turned out to be 0.623. The same measure for ACCGGAUGUGCUUUCCGGUCUGAUGACUCCGUGAGGACCAAACAG [G27C G39C]: 0.261; for ACCGGAUGUGCUUUCCGGUCUGAUGACUCCGUGAGGACAAAACAG [G27C G39A]: 0.302. The same measure for ACCGGAUGUGCUUUCCGGUCUGAUGACUCCGUGAGGACUAAACAG [G27C G39U]: 0.31; for ACCGGAUGUGCUUUCCGGUCUGAUGACUCCUUGAGGACGAAACAG [G27C G31U]: 0.772.

In the case of ACCGGAUGUGCUUUCCGGUCUGAUGACUCCAUGAGGACGAAACAG [G27C G31A], the self-cleavage was found to be 0.885. Consider ACCGGAUGUGCUUUCCGGUCUGAUGACUCCCUGAGGACGAAACAG [G27C G31C], for which the self-cleavage came out at 0.666. As for ACCGGAUGUGCUUUCCGGUCUGAUGACUCCGUGAGCACGAAACAG [G27C G36C], the figure is 0.257. The same measure for ACCGGAUGUGCUUUCCGGUCUGAUGACUCCGUGAGAACGAAACAG [G27C G36A]: 0.392; for ACCGGAUGUGCUUUCCGGUCUGAUGACUCCGUGAGUACGAAACAG [G27C G36U]: 0.371.

ACCGGAUGUGCUUUCCGGUCUGAUGAGACCGUGAGGACGAAACAG [U28A]: the self-cleavage turned out to be 0.822. With ACCGGAUGUGCUUUCCGGUCUGAUGAUUCGGUGAGGACGAAACAG [G27U C30G], the self-cleavage was 0.297. The same measure for ACCGGAUGUGCUUUCCGGUCUGAUGAUUCUGUGAGGACGAAACAG [G27U C30U]: 0.456. The same measure for ACCGGAUGUGCUUUCCGGUCUGAUGAUUCAGUGAGGACGAAACAG [G27U C30A]: 0.317; for ACCGGAUGUGCUUUCCGGUCUGAUGACUCCGUGAGGGCGAAACAG [G27C A37G]: 0.677; for ACCGGAUGUGCUUUCCGGUCUGAUGACUCCGUGAGGUCGAAACAG [G27C A37U]: 0.479. With ACCGGAUGUGCUUUCCGGUCUGAUGACUCCGUGAGGCCGAAACAG [G27C A37C], the self-cleavage was 0.491. As for ACCGGAUGUGCUUUCCGGUCUGAUGAUUUCGUGAGGACGAAACAG [G27U C29U], the figure is 0.316. For ACCGGAUGUGCUUUCCGGUCUGAUGAUUGCGUGAGGACGAAACAG [G27U C29G], the self-cleavage is 0.366.

In the case of ACCGGAUGUGCUUUCCGGUCUGAUGAUUACGUGAGGACGAAACAG [G27U C29A], the self-cleavage was 0.312. As for ACCGGAUGUGCUUUCCGGUCUGAUGAUUCCAUGAGGACGAAACAG [G27U G31A], the figure is 0.529; as for ACCGGAUGUGCUUUCCGGUCUGAUGAUUCCUUGAGGACGAAACAG [G27U G31U], 0.474. As for ACCGGAUGUGCUUUCCGGUCUGAUGAUUCCCUGAGGACGAAACAG [G27U G31C], the figure is 0.462; as for ACCGGAUGUGCUUUCCGGUCUGAUGACUCCGUGAGGACGAAGCAG [G27C A42G], 0.267; as for ACCGGAUGUGCUUUCCGGUCUGAUGACUCCGUGAGGACGAACCAG [G27C A42C], 0.272.

In the case of ACCGGAUGUGCUUUCCGGUCUGAUGACUCCGUGAGGACGAAUCAG [G27C A42U], the self-cleavage was 0.313. As for ACCGGAUGUGCUUUCCGGUCUGAUGAUUCCGUGGGGACGAAACAG [G27U A34G], the figure is 0.373. For the variant ACCGGAUGUGCUUUCCGGUCUGAUGAUUCCGUGUGGACGAAACAG [G27U A34U], the self-cleavage came out at 0.382. As for ACCGGAUGUGCUUUCCGGUCUGAUGAUUCCGUGCGGACGAAACAG [G27U A34C], the figure is 0.32.

Regarding ACCGGAUGUGCUUUCCGGUCUGAUGACUACGUGAGGACGAAACAG [G27C C29A], the self-cleavage is 0.414. As for ACCGGAUGUGCUUUCCGGUCUGAUGACUGCGUGAGGACGAAACAG [G27C C29G], the figure is 0.279. As to ACCGGAUGUGCUUUCCGGUCUGAUGACUUCGUGAGGACGAAACAG [G27C C29U], the self-cleavage was found to be 0.576. ACCGGAUGUGCUUUCCGGUCUGAUGACUCCGUGAGGACGAAAAAG [G27C C43A]: the self-cleavage turned out to be 0.291. The same measure for ACCGGAUGUGCUUUCCGGUCUGAUGACUCCGUGAGGACGAAAUAG [G27C C43U]: 0.399. As for ACCGGAUGUGCUUUCCGGUCUGAUGACUCCGUGAGGACGAAAGAG [G27C C43G], the figure is 0.26; as for ACCGGAUGUGCUUUCCGGUCUGAUGACUCCGUGAGGACGGAACAG [G27C A40G], 0.297. The same measure for ACCGGAUGUGCUUUCCGGUCUGAUGACUCCGUGAGGACGUAACAG [G27C A40U]: 0.356; for ACCGGAUGUGCUUUCCGGUCUGAUGACUCCGUGAGGACGCAACAG [G27C A40C]: 0.411. In the case of ACCGGAUGUGCUUUCCGGUCUGAUGAUUCCGUGAGGACGACACAG [G27U A41C], the self-cleavage amounted to 0.328.

For ACCGGAUGUGCUUUCCGGUCUGAUGAUUCCGUGAGGACGAUACAG [G27U A41U], the self-cleavage worked out at 0.347.

Consider ACCGGAUGUGCUUUCCGGUCUGAUGAUUCCGUGAGGACGAGACAG [G27U A41G], for which the self-cleavage stood at 0.312. In the case of ACCGGAUGUGCUUUCCGGUCUGAUGACUCCGUGAGGACGAGACAG [G27C A41G], the self-cleavage came out at 0.457. The same measure for ACCGGAUGUGCUUUCCGGUCUGAUGACUCCGUGAGGACGAUACAG [G27C A41U]: 0.333. Consider ACCGGAUGUGCUUUCCGGUCUGAUGACUCCGUGAGGACGACACAG [G27C A41C], for which the self-cleavage was 0.339. For the variant ACCGGAUGUGCUUUCCGGUCUGAUGAUUCCGUGAGAACGAAACAG [G27U G36A], the self-cleavage was 0.303. Take ACCGGAUGUGCUUUCCGGUCUGAUGAUUCCGUGAGUACGAAACAG [G27U G36U]: the self-cleavage stood at 0.328.
